# Measured values published in patent US6903185.
# Tests used:
# [1] = target: T1, Zif268 (three-finger peptide) (UniProt P08046 P08046:333-421); assay: cell_activity; 293 cells
# [2] = target: T1, Zif268 (three-finger peptide); assay: EMSA; pH 7.0, 100 mM NaCl, 5 mM MgCl2, Zn, room temp
# [3] = target: T1, Zif268 (three-finger peptide); assay: EMSA; room temp
Binder,activity [1] [fold repression],Kd [3] [nM],also measured
N//Z site in luciferase reporter promoter (dsDNA) DNA 1: AAGGGTTCAGTGCGTGGGCG DNA 2: CGCCCACGCACTGAACCCTT,15,–,–
Z site in luciferase reporter promoter (dsDNA) DNA 1: GCGTGGGCG DNA 2: CGCCCACGC,13,–,–
N/Z site in luciferase reporter promoter (dsDNA) DNA 1: AAGGGTTCAGGCGTGGGCG DNA 2: CGCCCACGCCTGAACCCTT,8.9,–,–
NZ site (dsDNA) DNA 1: TCTGCAAGGGTTCAGCGTGGGCGGTAAG DNA 2: CTTACCGCCCACGCTGAACCCTTGCAGA,–,–,Kd [2]: 0.012 nM
N/Z site (dsDNA) DNA 1: TCTGCAAGGGTTCAGGCGTGGGCGGTAAG DNA 2: CTTACCGCCCACGCCTGAACCCTTGCAGA,–,0.014,–
N//Z site (dsDNA) DNA 1: TCTGCAAGGGTTCAGTGCGTGGGCGGTAAG DNA 2: CTTACCGCCCACGCACTGAACCCTTGCAGA,–,0.014,–
